# Results: publication PMC7660097
# How the values were obtained:
# [1] = target: C. albicans cell surface-exposed enolase (C. albicans) (UniProt P30575); experiment: SPR; BIACORE 3000; enolase amine-coupled to a CM5 chip (about 300 RU); human protein as analyte (40-750 nM or 75-750 nM), 30 µL/min, 25 °C, 10 mM HEPES, 150 mM NaCl, 0.005% P20, pH 7.4; 1:1 Langmuir global fit with baseline drift and local Rmax; regeneration 1 M NaCl
# [2] = target: C. tropicalis cytosolic enolase (C. tropicalis) (UniProt C5MD83); experiment: as above
# [3] = target: C. albicans cytosolic enolase (C. albicans) (UniProt P30575); experiment: as above
# [4] = target: C. albicans cytosolic enolase (C. albicans) (UniProt P30575); experiment: ELISA; competition in a microplate: VTR immobilised (3 pmol per well); 40 nM biotinylated C. albicans enolase and 400 nM unlabeled HPG added together in PBS, 1.5 h, 37 °C; SA-HRP/TMB; also with 5 mM Mg2+ (no effect)
# [5] = target: human vitronectin (human) (UniProt P04004); experiment: ELISA; microplate ligand-binding assay, semi-quantitative: 3 pmol human protein immobilised per MaxiSorp well, blocked with 3% BSA; biotin-labeled enolase 10-500 nM in PBS, 1.5 h, 37 °C; detection with SA-HRP/TMB; BSA-only wells subtracted
# [6] = target: human plasminogen (human); experiment: as above
# [7] = target: human fibronectin (human); experiment: as above
# Chain of human vitronectin (human) (P04004 20-478): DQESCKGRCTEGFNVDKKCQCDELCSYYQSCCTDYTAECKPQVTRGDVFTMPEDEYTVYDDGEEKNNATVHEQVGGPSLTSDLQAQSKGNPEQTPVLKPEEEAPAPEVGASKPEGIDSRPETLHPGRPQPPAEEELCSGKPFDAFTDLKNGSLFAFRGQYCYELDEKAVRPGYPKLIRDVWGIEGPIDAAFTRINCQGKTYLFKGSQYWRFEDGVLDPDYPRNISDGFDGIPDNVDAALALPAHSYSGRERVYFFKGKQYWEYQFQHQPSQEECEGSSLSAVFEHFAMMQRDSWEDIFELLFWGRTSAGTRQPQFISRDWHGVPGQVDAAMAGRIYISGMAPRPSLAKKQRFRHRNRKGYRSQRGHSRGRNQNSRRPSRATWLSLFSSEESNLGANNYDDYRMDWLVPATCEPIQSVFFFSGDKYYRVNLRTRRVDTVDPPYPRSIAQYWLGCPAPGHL
Substance,Kd [1] [nM],koff [1] [s⁻¹],kon [1] [M⁻¹ s⁻¹],Kd [2] [nM],koff [2] [s⁻¹],kon [2] [M⁻¹ s⁻¹],Kd [3] [nM],koff [3] [s⁻¹],kon [3] [M⁻¹ s⁻¹],reduction of the binding of biotinylated enolase to immobilized VTR [4] [%],reduction in binding compared to R-Eno [5] [%],reduction in binding compared to R-Eno [6] [%],reduction in binding compared to R-Eno [7] [%]
human plasminogen (natural protein),120,0.0626,522000,253,0.0146,57700,257,0.0693,270000,50,,,
recombinant C. albicans enolase with the 235-255 sequence of S. cerevisiae enolase (R-Enosc) (from UniProt P30575 1-440) (enzyme),,,,,,,,,,,> 50,> 50,> 50
human fibronectin (natural protein),36.8,0.00222,60300,51.8,0.00284,54800,42.8,0.0277,647000,,,,
